Data taken from paper PMC12012759 (Protein Science : A Publication of the Protein Society, 2025).

How the values were obtained:
Experiment in all cases: ELISA
Conditions in all cases: both partners purified
[1] = molecular target: full‐length SARS‐CoV‐2 spike protein (1273 amino acids) (SARS-CoV-2 Wuhan, UniProt P0DTC2)
[2] = molecular target: T1, Fc fusion of Severe acute respiratory syndrome coronavirus 2 P0DTC2 (SARS‐CoV‐2 Wuhan, UniProt P0DTC2)
T1 construct: also called RBD‐Fc; RBD

human serum albumin = human serum albumin (Homo sapiens, UniProt P02768)

Measured: binding result

B1: Clostridioides difficile toxin A‐specific A20.1 VHH (VHH)
VHH: QVQLVESGGGLAQAGGSLRLSCAASGRTFSMDPMAWFRQPPGKEREFVAAGSSTGRTTYYADSVKGRFTISRDNAKNTVYLQMNSLKPEDTAVYYCAAAPYGANWYRDEYAYWGQGTQVTVSS
no binding: [1] | [2] | human serum albumin
